Experiment [1] concerns the target T1, soluble hetero-EPOR (EPOR-CD131-Fc) (Homo sapiens, UniProt P19235+P32927).
T1 construct: Chimeric Fc fusion proteins of the extracellular domains of human EPOR and human CD131; purchased Sino Biological CT010-H02H
T1 sequence (P19235 25-250 limits assumed): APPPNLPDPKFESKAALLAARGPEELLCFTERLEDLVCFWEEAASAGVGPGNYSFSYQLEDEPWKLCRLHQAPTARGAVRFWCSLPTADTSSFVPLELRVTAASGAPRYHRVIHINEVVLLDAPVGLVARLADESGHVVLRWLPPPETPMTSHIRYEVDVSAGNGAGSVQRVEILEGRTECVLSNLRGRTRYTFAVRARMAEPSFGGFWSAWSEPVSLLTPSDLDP
T1 sequence (P32927 17-443 limits assumed): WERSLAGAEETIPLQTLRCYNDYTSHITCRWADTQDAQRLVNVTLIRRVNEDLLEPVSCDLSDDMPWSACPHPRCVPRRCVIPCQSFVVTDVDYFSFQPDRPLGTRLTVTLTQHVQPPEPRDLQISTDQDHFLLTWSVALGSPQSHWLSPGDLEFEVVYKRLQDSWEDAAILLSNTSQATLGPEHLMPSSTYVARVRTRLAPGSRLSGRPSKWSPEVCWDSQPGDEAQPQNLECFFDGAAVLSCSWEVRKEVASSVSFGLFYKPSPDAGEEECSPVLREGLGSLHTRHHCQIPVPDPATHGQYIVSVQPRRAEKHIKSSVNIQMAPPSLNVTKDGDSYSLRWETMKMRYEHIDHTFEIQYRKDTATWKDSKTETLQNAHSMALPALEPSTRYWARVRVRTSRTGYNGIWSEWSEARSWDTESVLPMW
As to the kind of experiment: Bio-layer interferometry (Octet) binding of hybridoma antibodies to EPOR-CD131-Fc. The note with it: hybridoma supernatants; 30 nM soluble receptor. An excerpt: The B cells from ATX-GK mice were fused with mouse myeloma cells to generate hybridoma. The hybridoma cells were screened twice. In the first screening, 293 cells expressing human EPOR, human CD131, or both were used as the primary screen. 87 hybridoma antibodies have been isolated by positive staining on 293T cells expressing human EPOR (hEPOR), human CD131 (hCD131), or both, with the hybridoma supernatants (Table 11 and FIG. 17). Expression of EPOR and CD131 was confirmed by flow cytometry with Phycoerythrin (PE)-labeled anti-EPOR (R&D Systems, Cat #FAB307P) and Alexa Fluor® 647 (AF647)-labeled anti-CD131 (BD Biosciences, Cat #564191), respectively (FIG. 28B). All hybridoma clones were purified and sequenced. Binding kinetics with soluble hetero-EPOR (EPOR-CD131-Fc), soluble EPO receptor subunit of hetero-EPOR (EPOR-Fc), and soluble CD131 subunit of hetero-EPOR (CD131-Fc) were measured using bio-layer interferometry (Octet®) by capturing the hybridoma antibodies in the supernatants on biosensors coated with anti-mouse Fc first and dipping the biosensors into the solutions containing 30 nM of the soluble receptor Fc fusion proteins. The supernatants were also used to block the interaction between EPO and EPOR. The soluble EPOR-CD131-Fc was first captured on biosensors coated with anti-human Fc and then dipped into 10 nM of EPO with or without the hybridoma supernatants. […]
For orientation: In BLI a coated tip is dipped into the sample, and binding shifts an interference pattern.

Experiment [2] has as its target T2, 293T/EPOR cells (Homo sapiens, UniProt P19235).
T2 construct: expressed in transfected cells; host or cells: 293T cells expressing hEPOR
T2 sequence (P19235 25-508): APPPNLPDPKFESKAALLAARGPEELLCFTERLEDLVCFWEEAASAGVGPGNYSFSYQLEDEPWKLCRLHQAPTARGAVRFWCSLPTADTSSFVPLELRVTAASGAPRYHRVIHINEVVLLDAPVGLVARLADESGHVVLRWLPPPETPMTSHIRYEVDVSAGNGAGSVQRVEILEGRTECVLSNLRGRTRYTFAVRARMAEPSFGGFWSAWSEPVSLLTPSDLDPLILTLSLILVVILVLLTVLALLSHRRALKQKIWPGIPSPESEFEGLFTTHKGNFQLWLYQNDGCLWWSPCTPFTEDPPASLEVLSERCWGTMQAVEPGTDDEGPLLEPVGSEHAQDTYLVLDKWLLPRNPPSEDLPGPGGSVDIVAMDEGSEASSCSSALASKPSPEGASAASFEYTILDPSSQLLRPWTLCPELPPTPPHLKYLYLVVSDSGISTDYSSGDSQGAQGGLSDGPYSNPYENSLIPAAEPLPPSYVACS
The experiment is described as follows: Staining of 293T/EPOR cells with purified antibodies (flow cytometry). It is filed as binding. The procedure: (§1) The purified antibodies were used to stain the human leukemia UT-7 cells, 293T/EPOR, 293T/CD131, and 293T/EPOR/CD131 cells to confirm antigen binding. The UT-7 cells were maintained in Roswell Park Memorial Institute (RPMI) with 10% Fetal Bovine Serum (FBS) and 5 ng/ml of recombinant human GM-CSF (Peprotech®, Cat #300-03). The 293T cells expressing hEPOR, hCD131, or both were maintained in Dulbecco's Modified Eagle Medium (DMEM) with 10% FBS. 1×10^6 cells/ml were incubated with purified hybridoma clones M2 and M41 at a 3-fold dilution series starting from 20 μg/ml for 30 minutes at 4° C. After washing, the cells were incubated with PE labeled secondary antibody and subjected to flowcytometric analysis. […] The binding profiles of the 293T/EPOR/CD131 cells are similar except the peak MFIs around 1500, half of that of the 293T/EPOR cells (FIG. 29B).
For orientation: Flow cytometry measures light scatter and fluorescence of single cells or particles in a stream.

In experiment [3] the target is T3, UT-7 cells (Homo sapiens, UniProt P19235).
T3 construct: endogenous in cells; host or cells: UT-7 human leukemia cells
T3 sequence (P19235 25-508): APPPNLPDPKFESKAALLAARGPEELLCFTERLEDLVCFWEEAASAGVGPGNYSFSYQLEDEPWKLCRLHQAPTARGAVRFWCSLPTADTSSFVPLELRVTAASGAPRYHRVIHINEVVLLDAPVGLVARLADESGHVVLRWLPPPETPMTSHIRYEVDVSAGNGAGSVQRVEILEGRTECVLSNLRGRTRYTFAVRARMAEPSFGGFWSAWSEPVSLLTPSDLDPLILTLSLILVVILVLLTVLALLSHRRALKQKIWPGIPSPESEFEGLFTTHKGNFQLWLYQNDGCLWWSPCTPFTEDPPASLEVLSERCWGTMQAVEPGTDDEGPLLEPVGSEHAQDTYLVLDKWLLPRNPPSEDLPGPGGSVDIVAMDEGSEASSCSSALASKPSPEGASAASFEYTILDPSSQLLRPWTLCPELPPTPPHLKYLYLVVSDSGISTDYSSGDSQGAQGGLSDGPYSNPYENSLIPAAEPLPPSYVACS
As to the kind of experiment: Staining of UT-7 cells with purified antibodies. It counts as binding. The procedure: as §1

B1: EPORab - M2: hybridoma antibody clone, VH/VK in Table 10 (antibody, V domains shown)
VH: QVQLVESGGGLVKPGGSLRLSCAASGFTFSDSYMSWIRQAPGKGLEWVSYISNSGSYMYYADSVKGRFTISRDNAKNSLYLQMNNLRAEDTAVYYCARDKLGIGDYWGQGTLVTVSS
VL: DIQMTQSPSSLSASVGDRVTITCRASQGIRNDLGWFQQKPGKAPKRLIYAASRLQSGVPSRFSGSGSGTEFTLTISSLQPEDFATYCCLQHHTYPPTFGQGTKVEIK
Take B1: the “binding to EPOR-CD131-Fc” value in experiment [1] was “potent binding”. Besides, in experiment [2] (27 ng/ml purified antibody, 293T/EPOR cells), the “mean or median fluorescence intensity (MFI)” value is about 100%. Moreover, the “binding to 293T/EPOR cells” value in experiment [2] (20 μg/ml purified antibody) was “robust binding activities”. Besides, the MFI in experiment [3] is on record as ~18,000.

The values above are taken from patent US12637513B2, “Method of treating cancer by administering an inhibitor of erythropoietin receptor activity comprising either erythropoietin receptor or erythropoietin protein” (ImmunEdge, Inc., priority 2022, dated 2026).
